Data reported in patent publication US20110287512.

Legend:
[1] = test system: ZFN7264 linker TGLPKPKP (synthetic); assay: cell_activity; conditions: yeast, partner ZFN7263; host on 0-bp gap = 1.00
[2] = test system: ZFN7264 linker TGGGGSQKP (synthetic); assay: cell_activity; conditions: yeast, partner ZFN7263; host on 0-bp gap = 1.00
[3] = test system: ZFN7264 (host, center linker TGSQKP) (synthetic); assay: cell_activity; conditions: yeast, partner ZFN7263; host on 0-bp gap = 1.00; host data same as Table 9
[4] = test system: ZFN7264 linker 1e (synthetic); assay: cell_activity; conditions: yeast, partner ZFN7263; host on 0-bp gap = 1.00
[5] = test system: ZFN7264 linker TSRPRPKP (synthetic); assay: cell_activity; conditions: yeast, partner ZFN7263; host on 0-bp gap = 1.00
[6] = test system: ZFP8196 linker TGGGGSQKP (artificial)
[7] = test system: ZFP8196 linker LRQKDERP (artificial)
[8] = test system: ZFP8196 linker TPGLHRPKP (artificial)
[9] = test system: ZFP8196 linker TSPRLPAPKP (artificial)
[10] = test system: ZFP8196 linker TVSPAPCRSKP (artificial)
[11] = test system: ZFP8196 linker TCPRPPTRKP (artificial)
[12] = test system: ZFP8196 (host, center linker TGEKP) (artificial)
[13] = test system: ZFP8196 linker 1c (artificial)
[14] = test system: ZFP8196 linker 1d (artificial)
[15] = test system: ZFP8196 linker TPSHTPRPKP (artificial)
[16] = test system: ZFP8196 linker TPDAPKPKP (artificial)
[17] = test system: ZFP8196 linker TEPRAKPPKP (artificial)
[18] = test system: ZFP8196 linker TSSPRSNAKP (artificial)
[19] = test system: ZFP8196 linker TPDRPISTCKP (artificial)
[20] = test system: ZFP8196 linker TGEGGKP (artificial)
[21] = test system: ZFP8196 linker 1f (artificial)
[22] = test system: ZFP8196 linker TGYSIPRPKP (artificial)
[23] = test system: ZFN7263 (host, center linker TGSQKP) (synthetic); assay: cell_activity; conditions: yeast, partner ZFN7264; host on 0-bp gap = 1.00
[24] = test system: ZFN7263 linker TGGGGSQKP (synthetic); assay: cell_activity; conditions: yeast, partner ZFN7264; host on 0-bp gap = 1.00
[25] = test system: ZFN7263 linker TQRPQIPPKP (synthetic); assay: cell_activity; conditions: yeast, partner ZFN7264; host on 0-bp gap = 1.00
[26] = test system: ZFN7263 linker TPRPPIPKP (synthetic); assay: cell_activity; conditions: yeast, partner ZFN7264; host on 0-bp gap = 1.00
[27] = test system: ZFN7263 linker TPLCQRPMKQKP (synthetic); assay: cell_activity; conditions: yeast, partner ZFN7264; host on 0-bp gap = 1.00
[28] = test system: ZFN7263 linker TPNRCPPTKP (synthetic); assay: cell_activity; conditions: yeast, partner ZFN7264; host on 0-bp gap = 1.00
[29] = test system: ZFN7263 linker TYPRPLLAKP (synthetic); assay: cell_activity; conditions: yeast, partner ZFN7264; host on 0-bp gap = 1.00

Sequence | activity (normalized MEL-1) [1] | activity (normalized MEL-1) [2] | activity (normalized MEL-1) [3] | activity (normalized MEL-1) [4] | activity (normalized MEL-1) [5] | binding signal (normalized ELISA) [6] | binding signal (normalized ELISA) [7] | binding signal (normalized ELISA) [8] | binding signal (normalized ELISA) [9] | binding signal (normalized ELISA) [10] | binding signal (normalized ELISA) [11] | binding signal (normalized ELISA) [12] | binding signal (normalized ELISA) [13] | binding signal (normalized ELISA) [14] | binding signal (normalized ELISA) [15] | binding signal (normalized ELISA) [16] | binding signal (normalized ELISA) [17] | binding signal (normalized ELISA) [18] | binding signal (normalized ELISA) [19] | binding signal (normalized ELISA) [20] | other results
AAAGCGTAGCTCCG (double strand) [7264 yeast half-site gap TA] | 0.08 | 0.09 | 0.02 | 0.09 | 0.07 | – | – | – | – | – | – | – | – | – | – | – | – | – | – | – | –
TTAGATAAACTGTGCAAAAGGCTATC (double strand) [8196 target gap TG] | – | – | – | – | – | 0 | 0 | 0.01 | 0.01 | 0.01 | 0.01 | 0 | 0 | 0.01 | 0.01 | 0.01 | 0.01 | 0.01 | 0.02 | 0 | binding signal (normalized ELISA) [21]: 0.01; binding signal (normalized ELISA) [22]: 0.01
ACTCTGATTGGAAG (double strand) [7263 yeast half-site gap AT] | – | – | – | – | – | – | – | – | – | – | – | – | – | – | – | – | – | – | – | – | activity (normalized MEL-1) [23]: 0.02; activity (normalized MEL-1) [24]: 0.02; activity (normalized MEL-1) [25]: 0.02; activity (normalized MEL-1) [26]: 0.03; activity (normalized MEL-1) [27]: 0.01; activity (normalized MEL-1) [28]: 0.03; activity (normalized MEL-1) [29]: 0.05
AAAGCGCTGCTCCG (double strand) [7264 yeast half-site gap CT] | 0.09 | 0.15 | 0.08 | 0.11 | 0.1 | – | – | – | – | – | – | – | – | – | – | – | – | – | – | – | –
ACTCTGCTTGGAAG (double strand) [7263 yeast half-site gap CT] | – | – | – | – | – | – | – | – | – | – | – | – | – | – | – | – | – | – | – | – | activity (normalized MEL-1) [23]: 0.08; activity (normalized MEL-1) [24]: 0.04; activity (normalized MEL-1) [25]: 0.03; activity (normalized MEL-1) [26]: 0.04; activity (normalized MEL-1) [27]: 0.03; activity (normalized MEL-1) [28]: 0.06; activity (normalized MEL-1) [29]: 0.05
TTAGATAAACTGACCAAAAGGCTATC (double strand) [8196 target gap AC] | – | – | – | – | – | 0 | 0 | 0 | 0 | 0 | 0 | 0 | 0 | 0.01 | 0.01 | 0 | 0.01 | 0 | 0.01 | 0 | binding signal (normalized ELISA) [21]: 0; binding signal (normalized ELISA) [22]: 0
